Laboratory results taken from the DeepSol protein solubility set.

experiment: soluble on expression in E. coli; label from the status in PepcDB or PDB records

Sequence | soluble on expression in E. coli
MGHHHHHHSHMNGFSTEEDSREGPPAAPAAAAPGYGQSCCLIEDGERCVRPAGNASFSKRVQKSISQKKLKLDIDKSVRHLYICDFHKNFIQSVRNKRKRKTSDDGGDSPEHDTDIPEVDLFQLQVNTLRRYKRHYKLQTRPGFNKAQLAETVSRHFRNIPVNEKETLAYFIYMVKSNKSRLDQKSEGGKQLE | soluble
MSDGKEELVNRAKLAEQAERYDDMAASMKKVTELGAELSNEERNLLSVAYKNVVGARRSSWRVISSIEQKTEGSEKKQQMAKEYREKVEKELRDICQDVLNLLDKFLIPKAGAAESKVFYLKMKGDYYRYLAEVASGDDRNSVVEKSQQSYQEAFDIAKDKMQPTHPIRLGLALNFSVFFYEILNAPDKACQLAKQAFDDAIAELDTLNEDSYKDSTLIMQLLRDNLTLWTSDAATDDTDANETEGGN | soluble
TGILLANLGTPDAPTPEAVKRYLKQFLSDRRVVDTSRLLWWPLLRGVILPLRSPRVAKLYASVWMEDGSPLMVYSRQQQQALAQRLPDTPVALGMSYGSPSLESSVDELLAEHVDHIVVLPLYPQFSCSTVGAVWDELARILARKRSIPGISFIRDYADNHDYINALANSVRASFAKHGEPDLLLLSYHGIPQRYADEGDDYPQRCRTTTRELASALGMVPEKVMMTFQSRFGREPWLMPYTDETLKMLGEKGVGHIQVMCPGFAADCLETLEEIAEQNREVFLGAGGKKYEYIPALNATPEHIEMMANLV | not soluble
MRLKLTHINHISHKIANDFIHSKLLELKAPRELLCELIEGILEKSVKKENAIDEQARELLEENTDEIEFMRMDERQLFWMIKRQIAQKEGFHLFWEERCNDLSHQILNKILDEDLIMFSVSENLIRNLIYKSIDTYSKAYESIENEVHEKIKHYKRKLPVGSDEYELVFERLYEEELRRKGFL | not soluble
MKLYVLIIAIILSIGTARTQNIDSLLMQREDTTQFIRSDSLVLQFLEYSNIPITDNNKVKLIKSGREKFEDLFEAIRGAKHHIHLEYFNFRNDSIANALFDLLGEKVKEGVKVRAMFDAFGNWSNNKPLKKRHLKAIREKGIEIVKFDPFKFPYINHAAHRDHRKIAVIDGKIGYTGGMNIADYYINGLPKIGTWRDMHIRIEGDAVNILQEIFLDIWNKTTKQNIVGEEYFPNHPERADSCNTVISIVDRTPKRNSRMLSHTYAMSIYAAQHDVRIVNPYFVPTSSIRKALKRALNRGTKVEIMISSKSDIPFTPDASLYAVQKLMKKGAMIYLYNGGFHHSKIMMVDDLFCTVGTANLNSRSLRYDYETNAFIFDKDITQQLNDVFEADMLHCTRLTPEMWKQKSAWKKFKCWFANLFTPFL | not soluble
MSNIAKTSEALQARIRELCGDQLREVGTHPGHWDDSAVRHIVRNPPAAYVVWLGHVPGEHPHVVQARWAVYVVANVLDGQRQNDPGIYQLVEKLSAGLHRCRIAPSGTFDVVLRQAAHLSCYRCKTCGPIRKAAWAWRFTACILKRRNRAITGEMMAQTKITLLAPHKHAGKQYQAGEVLSVDEQSAKFILNMGIGKPAEPVRKNPKLNTEDKQNAK | not soluble
MGSDKIHHHHHHMTSFISVYLKIKYYICIYKGNLLVKSILLESSCVILIKYSAQYPNLSNSMIKMNKTISDVDFDDEQEIKLPLSNRQSIAILLGAGFSAPKGYPIGNDINKKIQNFDDSNIDFSPSGMLAISKDGHKPLFQIEGVRNIHQKYFIFCKRLINEYTKAHSNQFDYEQFYDFIKSDEAKDNRYRLLCQDLINKSDDYDNYLFNVVHIYNQMVLYLLKDKEGKSYYDGEPFKVNCADAYNEFLLYLSQQSKECIINIHTLNHDLLIESFNQTSNINGNISDGFDEYGSEYYGILEHDHRNYNCRLERYTGRYNTPIRLYKLHGSIDYVPFYRRDKNGFMKPEKYVKIKWGIGASNIIKGRKSKYGYDASPFEYHADFLTGTTSKIKRYDETLLFKKLFKKFRNNLSKANSLIIIGYGCKDKGINEMIKDNFDYKNKPSFIIDKYAGASVETFAQKINAKIIKESIERLDKTWFV | not soluble
GMTQKEWPLWEVFVRSKQGLEHKHCGSLHATDAQQALHMARDVYTRRQEGVSIWVVPSTAITASAPEEKPELFDPMADKIYRHPTFYQLPDEVNHM | soluble
MGSDKIHHHHHHMTINFRRNALQLSVAALFSSAFMANAADVPQVKVTVTDKQCEPMTITVNAGKTQFIIQNHSQKALEWEILKGVMVVEERENIAPGFSQKMTANLQPGEYDMTCGLLTNPKGKLIVKGEATADAAQSDALLSLGGAITAYKAYVMAETTQLVTDTKAFTDAIKAGDIEKAKALYAPTRQHYERIEPIAELFSDLDGSIDAREDDYEQKAADPKFTGFHRLEKALFGDNTTKGMDQYAEQLYTDVVDLQKRISELAFPPSKVVGGAAGLIEEVAASKISGEEDRYSHTDLWDFQANVEGSQKIVDLLRPQLQKANPELLAKVDANFKKVDTILAKYRTKDGFETYDKLTDADRNALKGPITALAEDLAQLRGVLGLD | not soluble
MPTIQSVRRTQSGRPGKRAINLSLSADVLDAARQLDINISQVCDTYLREVVRHEQERRWREEHADFITAYNATIEAENLPLDEWRSF | not soluble
MVIILAMTNREKFKVLADQIKISNQLEQDILEQGELTRIDVSNKNRTWTFQISLPHFLSHEDYLLFTHAIEEEFKEIATVAIDFSIKDTNNQDEFALKYFGHCIDQTRLSPKVKGQLKQKKLIMSGNVLKVLVSNDIERNHFDKACNGSLVKA | not soluble
MRLVIARCSVDYIGRLEAHLPMADRLLMVKADGSVSIHADDRAYKPLNWMTPPCTLTETTHEESETGESIPLWIVENKKGEQLRITIEALHSDMYYDLGEDPGLQKDGVEAHLQELLAEHIETLGDGYSLVRREYPTPIGPVDILCRDDKGGSVAVEIKRRGGIDGVEQLSRYLELLNRDDLLAPVAGVFAAQHIKPQARTLAEDRGIRCVTLDYDSLRGIESTELRLF | not soluble
GRSDTYDVLANRIENAVEQHRTEQRFWNALSWYQRLVEQELAGVCIIQDGTFVYVNQKLADIFSYDQSELIDESPALLTAEGDGDRLPESLRAADSDELDTFHSKFEGRQANGETRTIEVSGGSIEYDGEPAWIGVLRD | not soluble
MNLEPPKAEIRSATRVMGGPVTPRKGPPKFKQRQTRQFKSKPPKKGVQGFGDDIPGMEGLGTDITVICPWEAFNHLELHELAQYGII | soluble
MSLSPSPAIPSNTDYPGPHSFDVSFQQSSTAKSATWTYSTELKKLYCQIAKTCPIQIKVMTPPPQGAVIRAMPVYKKAEHVTEVVKRCPNHELSREFNEGQIAPPSHLIRVEGNSHAQYVEDPITGRQSVLVPYEPPQVGTEFTTVLYNFMCNSSCVGGMNRRPILIIVTLETRDGQVLGRRCFEARICACPGRDRKADEDSIRKQQVSDSTKNGDGTKRPFRQNTEGHHHHHH | soluble
MGSDKIHHHHHHMARRYVVVGGGPAGVVCAETLRRQDAEGSITLVCAEPGPPYSRMAIPYAMSGKIDESGTWLRKDWGHYEALGIALLHDRVTGVDSGARQVRLESGAPLSYDALLIATGSSPARPRVPGLDLPGVHSCWTLEDLRRIDPLLKPGRRVLLLGAGFVSCIILQSLVQRGAKVTVSCGSSGRMVRSMMDETAGGMIMRWCRAKGVEVLTAGRPTAIEQRDSGLLVTLDSGKSAEADLVIVGTGVKTNTAFLEGSGIAIEDGIIVDQYLGTNVPGIWAAGDVAQGFNCCTGLTEVHAIQPTAVEHGRVAAMNMSGHPTPFGGSLSMNTLETLGLISCSFGQWMGAEGGKQVRMVDEEHFRYLRLEFQGDRLVGANTVGMTNEIGIIRGLIQTKLRLGEWLERLTQDPSRLAEAYVACAQGV | not soluble
TSKCTIIPGSGFRNDEGKYEIIADKCIEADYPQKDEVAAAAYMNKYVEEVILRAPEQWMWLHKRYKTMQDENEPKGIRYK | not soluble
MGSDKIHHHHHHMRGDMLKRELQAYAKEIGIDEFRVTTADPFLVMKQRLMEQQEKGYASGFEEPDLERRTTPALLLEDAVSIIAIAVAYPSKLKDAPRGKEGERRGIFGRSSWGLDYHQALKQRLTLLEEKIQELSPGARSRSMVDTGELVDRAVAERAGIGFSGKNCSIISEEHGSYLYLGELITDQYLPPDESVEELCGSCNKCLDACPTDALIEPGVIDAKRCISFITQTKTLIPEHFRYALGNRLYGCDTCQQVCPYNRKKNATQHSELQPDPEQVKPLLIPLLSLSNREFKSRFGSLSGAWRGKKPIQRNAVCALVHYQDRTALDALRLMAETDQREDMRALAIWAVGRIAGQEAEDYIQKRLLTDSAEDVQVEGNRLLEEWGNGHAI | not soluble
